We go through five molecules from patent publication US6881719B2, “β-turn peptidomimetic cyclic compounds” (McGill University, priority 2000, dated 2005).

Values joined by “and” are separate entries in the source; they are usually repeats but may differ in a detail not shown here. Identical values can stand only once. Positions of bridges follow the written chain, without caps; N, C: chain ends. Non-standard residues stand in square brackets, D forms with d. 5‑nitrobenzoyl = N-terminal 5-nitrobenzoyl group, introduced by coupling 2-fluoro-5-nitrobenzoyl chloride; hSer = N[C@@H](CCO)C(=O)O

Data set [1] addresses p75 NGF receptor on B104 rat neuroblastoma cells and 4-3.6 cells (rat) (UniProt P07174). Briefly: FACScan, 4-3.6 cells, mAb 1 nM, no competitor.
The subject of data set [2] is septal neuronal cultures. Description: ChAT activity in septal neuronal cultures. Type of data set: cell-based, rat. Particulars: day 8. As for the experimental part: Cell cultures were established from the septal area of 17-day-old rat embryos. In brief, tissue was incubated in PBS containing trypsin and DNase. Tissue pieces then were mechanically dissociated. After centrifugation, the pellet was suspended in Leibovitz's L-15 medium. Cells were plated onto 96-multiwell NUNC dishes (10^5 cells/well) coated with poly-D-lysine (5 μg/ml). Pure cultures of septal neurons were treated 1 day after plating. Drugs, prepared in medium, were added directly to the cells without changing the initial medium. The incubation continued for 8 days, at which time ChAT activity was evaluated.
At day 8 of culture, the medium was aspirated, and ice-cold lysis buffer (10 mM sodium phosphate, pH 7.4/0.1% TritonX-100—Trade-mark) was added. ChAT activity assays were performed directly in the wells using Fonnum's method (Fonnum, 1975).

The test system of data set [3] is wild type HEK293 cells. Briefly: Cell survival control, wild type HEK293 cells. Type of data set: cell-based. As for the experimental part: (§1) Cell lines: 5,000 cells/well in protein-free media (PFHM-II, GIBCO, Toronto) containing 0.2% bovine serum albumin (BSA) (Crystalline fraction V, Sigma, St. Louis, Mo.) were seeded in 96 well plates (Falcon, Mississauga, Ontario). The cultures were untreated, or treated with the indicated test or control ligands. Cell viability was quantitated using the MTT assay after 56-72 hours of culture. […] The OD of untreated cells were subtracted. The higher optical density of untreated primary cultures is likely due to cellular heterogeneity and to endogenous production of limiting amounts of growth factors.

The test system of data set [4] is wild type NIH3T3 fibroblasts. Description: Cell survival (MTT), NIH wt. Type of data set: cell-based. As to conditions: 72 hours.
Excerpt: (§2) The 4-3.6 cells are B104 cells stably transfected with human trkA cDNA, and express equal levels of p75 and TrkA (TrkA+ p75+). For screening agents that activate or antagonize TrkC receptors, NIH3T3 fibroblasts were stably transfected with human TrkC cDNA. These cells respond to the ligand NT-3. For screening agents that activate or antagonize TrkA receptors, NIH3T3 fibroblasts were stably transfected with human TrkA cDNA. These cells respond to the ligand NGF.
as §1

The subject of data set [5] is embryonic rat DRG primary neuronal cultures. Description: Cell survival (MTT), primary DRG cultures.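 As to % Protection: 100% equals survival with optimal NGF at 1 nM.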 Type of data set: cell-based. Particulars: 8 days. How it is done: Fetal rat DRG primary cultures were established from Sprague Dawley day 17 rat embryos. All ganglia were dissected and dissociated first enzymatically with trypsin and then mechanically. Dissociated cells were cultured (10^5 cells/well) in 96 well plates pre-coated with collagen, and grown for a total of 8 days in Neuro Basal Medium containing N2 supplement (GIBCO, Toronto), antibiotics, and L-glutamine. These DRG cultures are ˜85% TrkA-expressing and are heavily dependent on TrkA signals for survival.
Primary DRG cultures: After a total of 8 days of culture with the indicated test or control ligands, cell survival were studied using the 3(4,5-Dimethylthiazolyl-2)-2,5-diphenyl tetrazolium bromide colorimetric (MTT) assay, and by microscopic observation.
as §1

Data set [6] relates to TrkB-expressing HEK293 cells. Briefly: Cell survival control, TrkB-expressing HEK293 cells. The format is cell-based. How it is done:
as §1

Data set [7] is described as follows: Proteolytic stability, then trophic assay on 4-3.6 cells. Particulars: exposure to trypsin or pepsin (D3: 1 hour).
Experimental: The proteolytic stability of D3 versus trypsin and papain was assessed. D3 was first exposed to enzymatic treatment as described previously (Saragovi et al., 1992), followed by gauging its biological activity on 4-3.6 cells.
Data set [8] concerns B104 cells. Briefly: Cell survival control, B104 cells. Type of data set: cell-based, rat.
Excerpt: as §2, §1

Data set [9] deals with T1, NIH3T3 fibroblasts expressing TrkC (Homo sapiens, UniProt Q16288).
T1 construct: expressed in transfected cells; host or cells: NIH3T3 fibroblasts
T1 sequence (Q16288 32-839): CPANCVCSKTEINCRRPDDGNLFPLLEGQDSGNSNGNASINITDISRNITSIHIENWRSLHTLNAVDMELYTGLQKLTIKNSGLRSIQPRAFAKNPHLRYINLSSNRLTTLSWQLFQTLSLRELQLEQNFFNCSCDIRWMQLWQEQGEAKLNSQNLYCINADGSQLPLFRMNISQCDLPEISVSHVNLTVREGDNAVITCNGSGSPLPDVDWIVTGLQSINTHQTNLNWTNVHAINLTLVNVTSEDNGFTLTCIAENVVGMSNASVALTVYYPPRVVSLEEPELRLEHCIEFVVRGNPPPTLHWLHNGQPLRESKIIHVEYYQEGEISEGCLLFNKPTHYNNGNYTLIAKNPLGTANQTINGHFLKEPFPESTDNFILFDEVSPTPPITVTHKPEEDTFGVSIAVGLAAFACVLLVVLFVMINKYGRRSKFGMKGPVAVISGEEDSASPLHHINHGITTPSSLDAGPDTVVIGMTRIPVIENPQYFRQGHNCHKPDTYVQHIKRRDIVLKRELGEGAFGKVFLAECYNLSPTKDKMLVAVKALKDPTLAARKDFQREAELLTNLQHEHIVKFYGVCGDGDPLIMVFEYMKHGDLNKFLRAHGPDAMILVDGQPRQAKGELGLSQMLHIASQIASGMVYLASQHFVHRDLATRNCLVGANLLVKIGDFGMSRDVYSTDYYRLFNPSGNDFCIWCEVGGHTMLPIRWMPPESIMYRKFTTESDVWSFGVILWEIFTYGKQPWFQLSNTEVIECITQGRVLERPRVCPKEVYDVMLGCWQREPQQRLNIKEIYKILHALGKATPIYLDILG
Briefly: Cell survival (MTT), NIH-TrkC. The format is cell-based. Particulars: 72 hours.
Excerpt: as §2, §1

The target of data set [10] is human TrkA expressed on transfected cells (4-3.6 cells; NIH3T3-TrkA cells) (human) (UniProt P04629). Description: FACScan, 4-3.6 cells (p75+ TrkA+), avidin-FITC.
Chain of human TrkA expressed on transfected cells (4-3.6 cells; NIH3T3-TrkA cells) (human) (P04629 33-796): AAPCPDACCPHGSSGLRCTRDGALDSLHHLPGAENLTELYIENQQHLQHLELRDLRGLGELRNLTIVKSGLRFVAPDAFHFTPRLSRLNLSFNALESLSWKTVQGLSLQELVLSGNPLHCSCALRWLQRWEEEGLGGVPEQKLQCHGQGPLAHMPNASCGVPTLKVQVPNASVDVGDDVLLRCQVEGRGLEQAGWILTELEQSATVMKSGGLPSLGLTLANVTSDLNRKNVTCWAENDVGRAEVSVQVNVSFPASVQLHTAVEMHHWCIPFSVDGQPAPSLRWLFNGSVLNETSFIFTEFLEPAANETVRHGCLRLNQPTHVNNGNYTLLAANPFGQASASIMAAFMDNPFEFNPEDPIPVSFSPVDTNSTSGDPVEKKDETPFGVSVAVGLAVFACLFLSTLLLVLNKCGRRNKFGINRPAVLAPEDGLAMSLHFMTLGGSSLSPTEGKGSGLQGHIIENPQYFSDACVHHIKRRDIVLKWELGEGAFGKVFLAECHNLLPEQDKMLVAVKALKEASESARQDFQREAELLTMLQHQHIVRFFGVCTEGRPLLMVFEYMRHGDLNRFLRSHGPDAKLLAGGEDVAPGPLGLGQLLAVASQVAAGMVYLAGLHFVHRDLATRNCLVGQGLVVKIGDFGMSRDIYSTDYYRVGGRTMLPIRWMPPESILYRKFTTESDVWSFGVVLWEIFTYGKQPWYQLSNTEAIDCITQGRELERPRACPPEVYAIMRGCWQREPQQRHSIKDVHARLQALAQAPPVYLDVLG
The target is the same in data set [11]. Description: FACScan, 4-3.6 cells, avidin-FITC.
Data set [12] concerns the target p75 NGF receptor on B104 rat neuroblastoma cells and 4-3.6 cells (rat) (UniProt P07174). Description: FACScan, B104 cells (p75+ TrkA-), avidin-FITC.
Data set [13] addresses recombinant baculovirus TrkA-extracellular domain protein (TrkA-ECD) (UniProt P04629). Briefly: competition ELISA, mAb 5C3 2 nM on immobilized TrkA-ECD, competitor D3 40 µM. (ELISA stands for enzyme-linked immunosorbent assay.)
Data set [14] addresses human TrkA expressed on transfected cells (4-3.6 cells; NIH3T3-TrkA cells) (human) (UniProt P04629). Description: FACScan competition, 4-3.6 cells, mAb 5C3 1 nM, competitor D3 1 µM.
For data set [15], the target named is recombinant baculovirus TrkA-extracellular domain protein (TrkA-ECD) (UniProt P04629). Briefly: competition ELISA, mAb 5C3 2 nM on immobilized TrkA-ECD, competitor D3 20 µM.
Chain of recombinant baculovirus TrkA-extracellular domain protein (TrkA-ECD) (P04629 33-423 limits assumed): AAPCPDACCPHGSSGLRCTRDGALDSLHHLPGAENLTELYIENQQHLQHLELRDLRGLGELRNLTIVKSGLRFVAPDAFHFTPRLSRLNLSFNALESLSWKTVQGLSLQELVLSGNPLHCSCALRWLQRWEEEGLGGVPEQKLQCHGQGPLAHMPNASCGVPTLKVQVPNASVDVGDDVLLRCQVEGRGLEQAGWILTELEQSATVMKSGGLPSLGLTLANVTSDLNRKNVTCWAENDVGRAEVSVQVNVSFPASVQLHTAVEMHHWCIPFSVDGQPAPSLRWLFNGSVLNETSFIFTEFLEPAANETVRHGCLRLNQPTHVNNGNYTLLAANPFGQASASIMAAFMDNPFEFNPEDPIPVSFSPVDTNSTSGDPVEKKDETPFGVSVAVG
The target of data set [16] is human TrkA expressed on transfected cells (4-3.6 cells; NIH3T3-TrkA cells) (human) (UniProt P04629). Description: FACScan competition, 4-3.6 cells, mAb 5C3 1 nM, competitor D3 0.20 µM.
For data set [17] the target is unchanged. Description: FACScan competition, 4-3.6 cells, mAb 5C3 1 nM, competitor D3 5 µM.
Data set [18] has as its target p75 NGF receptor on B104 rat neuroblastoma cells and 4-3.6 cells (rat) (UniProt P07174). Description: FACScan, B104 cells (p75+ TrkA-), D3-biotin 20 µM with 10-fold molar excess of D3, avidin-FITC.
For data set [19], the target named is recombinant baculovirus TrkA-extracellular domain protein (TrkA-ECD) (UniProt P04629). Description: competition ELISA, mAb 5C3 2 nM on immobilized TrkA-ECD, competitor D3 5 µM.
The target is the same in data set [20]. Description: calculated from competition ELISA against mAb 5C3 on immobilized TrkA-ECD.
Data set [21] has the same target. Briefly: competition ELISA, mAb 5C3 2 nM on immobilized TrkA-ECD, competitor D3 1 µM.
In data set [22] the target is human TrkA expressed on transfected cells (4-3.6 cells; NIH3T3-TrkA cells) (human) (UniProt P04629). Description: FACScan, 4-3.6 cells (p75+ TrkA+), D3-biotin 20 µM with 10-fold molar excess of D3, avidin-FITC.
Data set [23] has as its target p75 NGF receptor on B104 rat neuroblastoma cells and 4-3.6 cells (rat) (UniProt P07174). Briefly: FACScan competition, 4-3.6 cells, mAb MC192 1 nM, competitor D3 40 µM.
The target of data set [24] is human TrkA expressed on transfected cells (4-3.6 cells; NIH3T3-TrkA cells) (human) (UniProt P04629). Briefly: FACScan competition, 4-3.6 cells, mAb 5C3 1 nM, competitor D3 40 µM.
Data set [25] addresses TrkA on primary rat embryonic neurons (DRG and septal cultures) (rat, UniProt P35739 33-799). Briefly: cell-based or functional assay.
Data set [26] addresses human TrkA expressed on transfected cells (4-3.6 cells; NIH3T3-TrkA cells) (human) (UniProt P04629). Description: estimated from FACScan competition against mAb 5C3 on 4-3.6 cells.
In data set [27] the target is recombinant baculovirus TrkA-extracellular domain protein (TrkA-ECD) (UniProt P04629). Briefly: competition ELISA, mAb 5C3 2 nM on immobilized TrkA-ECD, competitor D3 0.05 µM.
The target is the same in data set [28]. Description: competition ELISA, mAb 5C3 2 nM on immobilized TrkA-ECD, competitor D3 0.2 µM.
The target in data set [29] is human TrkA expressed on transfected cells (4-3.6 cells; NIH3T3-TrkA cells) (human) (UniProt P04629). Description: cell-based or functional assay.
Data set [30] has as its target human TrkC expressed on transfected NIH3T3 fibroblasts (human) (UniProt Q16288). Description: cell-based or functional assay.
The target in data set [31] is human TrkA expressed on transfected cells (4-3.6 cells; NIH3T3-TrkA cells) (human) (UniProt P04629). Briefly: cell-based or functional assay. This is another data set of the same source.

Chain of p75 NGF receptor on B104 rat neuroblastoma cells and 4-3.6 cells (rat) (P07174 30-425): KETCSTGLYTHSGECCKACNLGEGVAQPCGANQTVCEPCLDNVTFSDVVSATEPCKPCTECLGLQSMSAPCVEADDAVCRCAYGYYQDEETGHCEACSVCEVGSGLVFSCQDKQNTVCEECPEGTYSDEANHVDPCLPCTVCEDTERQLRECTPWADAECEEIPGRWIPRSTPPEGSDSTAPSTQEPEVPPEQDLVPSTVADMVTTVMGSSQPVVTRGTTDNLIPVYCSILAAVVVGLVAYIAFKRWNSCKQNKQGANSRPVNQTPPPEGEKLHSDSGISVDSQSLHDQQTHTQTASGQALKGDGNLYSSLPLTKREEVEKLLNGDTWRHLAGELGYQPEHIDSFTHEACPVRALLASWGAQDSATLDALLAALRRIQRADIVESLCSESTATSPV
Chain of TrkA on primary rat embryonic neurons (DRG and septal cultures) (P35739 33-799): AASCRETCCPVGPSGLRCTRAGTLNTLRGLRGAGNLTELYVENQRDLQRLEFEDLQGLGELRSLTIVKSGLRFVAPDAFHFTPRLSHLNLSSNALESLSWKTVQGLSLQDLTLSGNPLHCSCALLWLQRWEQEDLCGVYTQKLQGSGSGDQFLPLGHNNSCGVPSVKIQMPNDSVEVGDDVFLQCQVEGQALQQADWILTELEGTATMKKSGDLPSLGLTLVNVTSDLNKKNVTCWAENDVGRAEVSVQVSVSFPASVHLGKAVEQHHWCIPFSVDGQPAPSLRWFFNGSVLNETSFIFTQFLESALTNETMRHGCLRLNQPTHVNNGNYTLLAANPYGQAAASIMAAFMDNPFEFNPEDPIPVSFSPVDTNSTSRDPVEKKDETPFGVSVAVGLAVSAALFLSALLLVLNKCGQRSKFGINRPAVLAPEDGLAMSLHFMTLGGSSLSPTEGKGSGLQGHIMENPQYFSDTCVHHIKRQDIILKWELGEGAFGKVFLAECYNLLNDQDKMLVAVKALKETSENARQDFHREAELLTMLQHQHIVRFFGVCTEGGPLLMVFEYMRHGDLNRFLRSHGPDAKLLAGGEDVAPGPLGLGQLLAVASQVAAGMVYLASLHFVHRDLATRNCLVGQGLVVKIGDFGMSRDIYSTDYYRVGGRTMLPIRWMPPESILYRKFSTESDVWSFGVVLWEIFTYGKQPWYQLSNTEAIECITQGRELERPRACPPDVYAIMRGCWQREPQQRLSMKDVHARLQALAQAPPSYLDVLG
Chain of human TrkC expressed on transfected NIH3T3 fibroblasts (human) (Q16288 32-839): as the sequence (Q16288 32-839) above

In [1], anti-p75 monoclonal antibody MC192 displayed a % Maximal binding of 100%.
For the molecule “NGF: neurotrophin nerve growth factor, natural ligand of TrkA”, the entries for the “ChAT Activity” value in [2] (10 pM NGF) and in data set [2] (400 pM NGF) were 0.42 ± 0.07 pmol Ach/min/well and 0.72 ± 0.10 pmol Ach/min/well, respectively. In addition, the protection from apoptosis entry in data set [3], in data set [6] and in data set [8] was “neither D3 nor NGF protected” each time. Moreover, the “NIH wt % Protection” value in data set [4] (10 pM NGF) is 5 ± 7% and 3 ± 5%; in data set [4] (1 nM NGF), 5 ± 12% and 4 ± 6%. The “% Protection” value in data set [5] (NGF 20 pM) is on record as 9 ± 1%; in data set [5] (NGF 500 pM), 68 ± 3%; in [5] (NGF 1 nM, relative to 1 nM NGF) it was 100 ± 4%. For the same molecule, the “Optical Density” value in data set [5] (NGF 20 pM) is 316 ± 11; in data set [5] (NGF 500 pM), 535 ± 19; in [5] (NGF 1 nM), 823 ± 28. For the same molecule, the “biological activity in trophic assays after enzymatic treatment” value in [7] was “lost all activity within minutes”. Also, the “NIH-TrkC % Protection” value in data set [9] (10 pM NGF) is 2 ± 4%; in data set [9] (1 nM NGF) it was 5 ± 6%.
For the molecule “D3-biotin (biotin derivative of D3) (peptide)”, the MCF in data set [10] stood at 53 MCF; in data set [12] it was 10 MCF. Besides, the fold fluorescence over control peptide-biotin in [11] came to 4 fold.
Usually Kd stands for a measure of binding affinity in units of concentration. Regarding {5‑nitrobenzoyl}-EK[hSer]G-OH (bridge N-3) [D3 (EKHse-G-OH), β-turn peptidomimetic cyclic compound], the % Binding of mAb 5C3 in data set [13] came out at 31%. Besides, the % Maximal binding of mAb 5C3 in data set [14] was found to be 80%. The % Binding of mAb 5C3 in data set [15] amounted to 38%. The molecule also gave a % Maximal binding of mAb 5C3 in [16] of 95%. Besides, the % Maximal binding of mAb 5C3 in data set [17] turned out to be 53%. Further, in [18], the MCF of D3-biotin in the presence of competitor D3 was determined as 11 MCF. Also, in data set [19], the % Binding of mAb 5C3 was determined as 43%. Besides, the Kd in [20] is 2000 nM. The % Binding of mAb 5C3 in [21] was 64%. Moreover, the MCF of D3-biotin in the presence of competitor D3 in [22] was 17 MCF. In data set [23], this molecule gave a % Maximal binding of mAb MC192 of 101%. In data set [24], this molecule came in with a % Maximal binding of mAb 5C3 of 33%. Moreover, in data set [25], the “ChAT Fold Increase, 0.2 µM D3” value was found to be 1.23 fold; the “ChAT Fold Increase, 0.2 µM D3 + 10 pM NGF” value worked out at 2 fold; the “ChAT Fold Increase, 2 µM D3” value was found to be 1.47 fold; the “ChAT Fold Increase, 2 µM D3 + 10 pM NGF” value is 2.53 fold. In addition, in data set [25], the “ChAT Fold Increase, 20 µM D3” value was found to be 1.56 fold and the “ChAT Fold Increase, 20 µM D3 + 10 pM NGF” value was 2.63 fold. Further, the Kd in data set [26] was 2000 nM. In addition, the % Binding of mAb 5C3 in data set [27] was 100%. The % Binding of mAb 5C3 in [28] came out at 89%. In data set [29], the % Protection (MTT, 4-3.6 cells), 10 µM D3 was determined as 8%; the % Protection (MTT, 4-3.6 cells), 10 µM D3 + 10 pM NGF is 55%; the % Protection (MTT, NIH-TrkA), 10 µM D3 is 8%; the % Protection (MTT, NIH-TrkA), 10 µM D3 + 10 pM NGF amounted to 51%. In [29], the Optical Density (MTT survival, 4-3.6 cells), 10 µM D3 was 95 OD; the Optical Density (MTT survival, 4-3.6 cells), 10 µM D3 + 10 pM NGF turned out to be 255 OD; the intensity of the Mr 300 kDa band (putative TrkA·TrkA dimers) after cross-linking, standardized to 1 nM NGF (100%), 10 pM NGF + 10 µM D3 came out at 77%; the intensity of the Mr 300 kDa band (putative TrkA·TrkA dimers) after cross-linking, standardized to 1 nM NGF (100%), 10 µM D3 alone was determined as 21%.

B1: Neurotrophin-3 (NT-3) (ligand, UniProt P20783 139-257, looked up, species assumed)
Neurotrophin-3: YAEHKSHRGEYSVCDSESLWVTDKSSAIDIRGHQVTVLGEIKTGNSPVKQYFYETRCKEARPVKNGCRGIDDKHWNSQCKTSQTYVRALTSENNKLVGWRWIRIDTSCVCALSRKIGRT
The molecule B1 showed a % Protection (MTT, NIH-TrkC), 10 pM NT-3 in data set [30] of 29%. The molecule further returned a % Protection (MTT, NIH-TrkA), 10 pM NT-3 in [31] of 3%.
